Data reported in paper PMC4180279 (Biochemistry, 2014).
Where a chain is given by its changes, count along the chain named.

B1: GST-PQ: GST-tagged residues 1898–2035 of the rat P/Q channel α1 subunit, encompassing IQ motif and CBD (protein, UniProt P54282 1898-2035, looked up, fragment)
chain: KSTDLTVGKIYAAMMIMEYYRQSKAKKLQAMREEQNRTPLMFQRMEPPSPTQEGGPSQNALPSTQLDPGGGLMAQESSMKESPSWVTQRAQEMFQKTGTWSPERGPPIDMPNSQPNSQSVEMREMGTDGYSDSEHYLP
modifications: GST tag
notes: GST-tagged residues 1898–2035 of the rat P/Q channel α1 subunit, encompassing IQ motif and CBD
B2: GST^IM→EE: GST-PQ with IM residues at positions 1913 and 1914 mutated to glutamic acid (protein, UniProt P54282 1898-2035, looked up, variant I1913E M1914E)
chain: B1 chain with I16E, M17E
modifications: GST tag
notes: GST-PQ with IM residues at positions 1913 and 1914 mutated to glutamic acid
B3: ^myrPQ-YFP: C-terminally YFP-tagged P/Q 1898–2035 with N-terminal myristoylation consensus sequence (protein, UniProt P54282 1898-2035, looked up, fragment)
chain: B1 chain
modifications: N-terminal myristoylation sequence, C-terminal YFP tag
B4: GST-CBD: GST-tagged CaM-binding domain, residues 1950–2035 of the rat P/Q channel α1 subunit (protein, UniProt P54282 1950-2035, looked up, fragment)
chain: EGGPSQNALPSTQLDPGGGLMAQESSMKESPSWVTQRAQEMFQKTGTWSPERGPPIDMPNSQPNSQSVEMREMGTDGYSDSEHYLP
modifications: GST tag

Legend:
[1] = test system: CaM; assay: In vitro pull-down binding of CaM to GST-PQ constructs, Western blot; design: species or system human; conditions: presence or absence of 1 μM free Ca2+
From the text: DNA constructs and molecular biology GST-NCS-1[24] and NCS-1-mCherry[18] plasmids were as previously described. The coding sequence for human CaM was amplified by polymerase chain reaction (PCR) from oligo-dT(15)-primed HeLa cell RNA and reverse-transcribed first-strand cDNA template with the following primer pair (based on GenBank accession number M19311) containing restriction endonuclease sites (underlined) for subcloning into N-terminal GST tag vector pGex6P-1 (Amersham Biosciences): sense (BamHI), 5′-[…]-3′; antisense (XhoI), 5′-[…]-3′. GST-P/Q, encoding residues 1898–2035 of the rat P/Q channel α1 subunit (GenBank accession number NM_012918) was amplified by PCR from a rat brain single-strand cDNA template with the following primer pair containing restriction endonuclease sites (underlined) for subcloning into pGex6P-1: sense (BamHI), 5′-[…]-3′; antisense (XhoI), 5′-[…]-3′. GST-CBD (residues 1950–2035) of the rat P/Q channel α1 subunit was amplified by PCR from the GST-P/Q template using the P/Q reverse primer and a sense primer containing a BamHI site (underlined) for subsequent subcloning into pGex6P-1 (5′-[…]-3′). GST-P/Q^IM→EE was generated by site-directed mutagenesis of the GST-P/Q plasmid using the QuikChange reagents and protocol (Agilent Technologies) and the following primer pair: sense, 5′-[…]-3′; antisense, 5′-[…]-3′.
For the In vitro protein binding assays, 5 μM GST fusion protein (GST-P/Q, GST-P/Q^IM→EE, or GST-CBD) was immobilized onto 30 μL of glutathione-agarose resin (Thermo Scientific) that had been prewashed in binding buffer (BB) [150 mM KCl, 20 mM HEPES (pH 7.4), 10% (v/v) glycerol, 5 mM NTA, 5 mM EGTA, 1 mM DTT, and 0.1% (v/v) NP-40] or BB supplemented with 1 μM free Ca^2+ (BB+Ca^2+) by incubation for 30 min with constant agitation at 4 °C. […]
Nitrocellulose filters were blocked by incubation in a blocking solution [3% (w/v) skim milk powder in PBS] for 1 h at room temperature. […] Densitometry analysis of developed Western blots was performed using Quantity-1 (Bio-Rad). […]

[2] = target: T1, NCS-1 (Homo sapiens, UniProt P62166); assay: In vitro pull-down binding of NCS-1 to GST-PQ constructs, Western blot densitometry; conditions: for average NCS-1 bound: 5 μM GST fusion protein, 5 μM NCS-1, 1 h, 4 °C, pH 7.4, normalized: NCS-1 bound to GST-PQ with Ca2+ = 100%, minimal binding without Ca2+ = 0%, mean of n = 3
T1 construct: His tag (TEV-cleavable) (N, cleaved yes); made in house; host or cells: Escherichia coli BL21(DE3)

[3] = test system: HeLa cells; assay: Localization of fluorescently tagged proteins in HeLa cells, confocal imaging, puncta scoring; assay type: cell-based; conditions: for cells with puncta: 24 h post-transfection, means ± SEM
From the text: Myristoylated PQ (residues 1898–2035, ^myrPQ-YFP) was constructed as follows. A DNA fragment encoding the myristoylation sequence taken from ref ([25]) was inserted between the XhoI and HindIII sites of pEYFP-N1 (Clontech) to generate p^myrEYFP-N1. PQ^1898–2035 was amplified by PCR from the existing pGex template with the following primer pair containing restriction endonuclease sites (underlined) for subsequent subcloning into p^myrEYFP-N1: sense (HindIII), 5′-ATAT AAGCTTAAGTCCACGGACCTGACAGTG-3′; antisense (SacII), 5′-ATAT CCGCGGGGGGAGGTAGTGTTCGCTGTC-3′. All constructs were verified by dideoxy sequencing (The Sequencing Service, University of Dundee, Dundee, U.K.).
HeLa cells were cultured in DMEM supplemented with 10% (v/v) fetal bovine serum, 1% (v/v) penicillin/streptomycin, and 1% (v/v) nonessential amino acids. All cells were maintained in a humidified 95% air/5% CO2 atmosphere at 37 °C. Cells were plated onto sterile 13 mm round coverslips at a density of 0.25 × 10^6 cells/well. After 24 h, cells were transiently transfected with the indicated expression vectors using GeneJuice transfection reagent (Novagen) according to the manufacturer’s protocol. For single and double transfections, 1 μg of each plasmid was used.
Twenty-four hours post-transfection, cells on coverslips were washed with phosphate-buffered saline [137 mM NaCl, 2.7 mM KCl, 10 mM Na2PO4, and 2 mM NaH2PO4 (pH 7.4)] and then fixed with 4% (v/v) formaldehyde in PBS for 6 min at room temperature. Coverslips were subsequently air-dried and mounted onto microscope slides using Prolong antifade glycerol (Life Technologies). Fixed cells were imaged using a Leica TCS-SP2 confocal system (Leica Microsystems, Heidelberg, Germany) with a pinhole set to 1 Airy unit and a 63× oil immersion objective with a numerical aperture of 1.3. Images were exported as TIFF files and compiled, processed, and analyzed with ImageJ and CorelDraw X6 applications.

[4] = without Ca2+ (5 mM EGTA, 5 mM NTA)

T1 sequence (P62166 whole entry, species assumed, the tested form may be a part): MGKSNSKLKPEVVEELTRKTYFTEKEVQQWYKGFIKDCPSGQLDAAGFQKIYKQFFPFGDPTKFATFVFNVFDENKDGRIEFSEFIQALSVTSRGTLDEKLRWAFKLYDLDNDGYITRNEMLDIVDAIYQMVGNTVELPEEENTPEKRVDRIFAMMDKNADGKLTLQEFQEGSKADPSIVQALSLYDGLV

Molecule | CaM binding (qualitative) [1] | NCS-1 binding (qualitative) ([2]; presence or absence of 1 μM free Ca2+, Western blot) | average NCS-1 bound ([2]; with Ca2+ (1 μM free Ca2+)) [%] | average NCS-1 bound [2, 4] [%] | cellular localization ([3]; HeLa cells, without myrPQ-YFP puncta) | colocalization of soluble mCherry with myrPQ-YFP ([3]; control cotransfection with soluble mCherry, data not shown) | cells with puncta ([3]; control myrPQ-YFP + mCherry, three independent experiments) [%] | cells with puncta ([3]; cotransfected NCS-1-mCherry + myrPQ-YFP, four independent experiments) [%]
B1 | Ca^2+-dependent binding | Ca^2+-dependent binding | 100 | 31.2 |  |  |  | 
B2 | no detectable binding |  |  | 2.8 |  |  |  | 
B3 |  |  |  |  | plasma membrane and/or large cytosolic puncta | no colocalization | 43.6 ± 3 | 39.5 ± 9.2
B4 | no detectable binding |  |  | 4.9 |  |  |  | 
